Laboratory results as given in publication PMC3870462 (Chemistry & biology, 2013).
Read-outs that look alike come from different tables or passages of the source.

Tests used:
[1] = biological target: CurK-CurL ^ACPddK-G3SG3S-ddL^KS (Moorea producens)
[2] = biological target: CurI dd-KS-AT dimer (Moorea producens); test: SEC
[3] = biological target: CurH ACP-dd (Moorea producens); test: fluorescence polarisation
[4] = biological target: PikAIIID-^ACPddG (not stated | Moorea producens)
[5] = biological target: Avitag-CurG ACP-dd (Moorea producens); test: BLI
[6] = biological target: CurG ACP-dd (Moorea producens); test: fluorescence polarisation
[7] = biological target: CurK ACP-dd (Moorea producens); test: fluorescence polarisation
[8] = biological target: CurK ACP-dd E2224R (Moorea producens); test: fluorescence polarisation
[9] = biological target: CurK ACP-dd E2224R (Moorea producens); test: fluorescence polarisation; remark: listed apart in the source
[10] = biological target: CurL dd^KS (Moorea producens); test: crystal structure
[11] = biological target: CurL ACP-dd (Moorea producens); test: fluorescence polarisation
crystal structure = biological target: the molecule itself; test: crystal structure
[12] = biological target: the molecule itself

CurK-CurL ^ACPddK-G3SG3S-ddL^KS
stoichiometry N [1]: 2

CurI dd-KS-AT dimer (domain or fragment)
stoichiometry N [2]: 2
Kd [3]: 9.4 µM

ddH^KS-PikAIV (enzyme)
10-deoxymethynolide (10-dml) produced, percent of wild type PikAIII/PikAIV [4]: 188%
narbonolide (nbl) produced, percent of wild type PikAIII/PikAIV [4]: 70%
pentaketide substrate consumed in the PikAIII/PikAIV two-module reaction [4]: 86%

CurH dd-KS-AT (domain or fragment)
Kd [5]: 16.5 µM
Kd [6]: 15.7 µM
Kd [7]: 23.7 µM
Kd [8]: 9.2 µM
Kd [9]: 10 µM

CurH dd-KS-AT lacking helix αA and the dd^KS loop (domain or fragment)
Kd [6]: 117 µM

CurI dd-KS-AT (domain or fragment)
Kd [3]: 20.5 µM

CurL dd^KS (domain or fragment)
stoichiometry N [10]: 2

CurM dd-KS-AT (domain or fragment)
Kd [7]: 52 µM
Kd [11]: 5.4 µM

B1: CurL dd-KS-AT (domain or fragment, Moorea producens)
chain: MNLKQEQEKEQSLSALQRALIALKDARSKLEKYETQSKEPIAIIGMSCRFPGGVDSPESFWQLLNDGVDAISEVPSNRWNINNYYDPDPDATGKISTRDGGFLSQIDGFDAPFFCISPREVQSLDPQQRLLLEVSWEAIERANIVPDQLFNSLTGVFIGIGSSDYLNQLATSEVPQAYWGTGNAPSAATGRLSYILGLTGPNLAVETACSSSLVSLHLACQSLRQQECNLALAGGVNLLLSPETSIIFSQAKMLSPDGRCKTFDASANGYVRGEGCGVIVLKRLSDAVANGDNVLAVIRGTAINQDGASGGLTVPNGPSQVAVIRKALSNGGVDPASVSYIEAHGTGTSLGDPIEVGAIGTVFGKTHSQEQPLIVGTAKTNIGHLEVAAGIAGLMKVVLQLQHQQIAPSLHFKQPNPYINWSQLPVQVSTQLTPWQTNGKSRIAGVSSFGFSGTNAHVVIEEAPKEGNSLSATVEENGNSTVKEDTLERAVYLLTLSAKTQAALDDLVNSYQNYLKNYPELRIADICYTANTCRSHFNNRLAVVASNQQELVEKLRQHQQGEEVTGIYSIELPNNSTAPKIALLFTGQGSQYVNMGRQLYQQAPVFRKALEQCNEILLGTETFREKSLLEILYPANQEQSNSSLLDQTAYTQPCLFALEYALFKLWQSWGIQPDVVMGHSVGEYVAATVAGVFSLEEGLKLIAARGRLMQQLPAGGEMVSVIASESKVLEIFKAMSLEEKVAIAAINGPESTVISGEAEAVGAIATHLESLSIKTKQLQVSHAFHSRLMEPMLAEFEAVAKQVTYSQPQISLISNVTGQQVGSEITSAEYWVNHVRQPVRFSESMTTLHQEGYELFLEIGPKPILLGMGRQCLPEGVGVWLPSLRPGVEAWQQMLQSLGQLYMKGIKVNWSGFDQDYACHKVAIPTYPFQRESYWIDT
stoichiometry N (crystal structure): 2
Kd [7]: 4.5 µM

B2: CurG-CurH ^ACPddG-G3SG3S-ddH^KS (other, Moorea producens)
chain: LEAKLLDEIKQSSNQELESSIDQILESIINGGGSGGGSMLNKFTKKEQILSEKQQIKQLSPLQRAALALKKLETKLNNTLHE
stoichiometry N [12]: 2
